Consider 43 sequences from US7276481B2, “Method and composition for treatment of skeletal dysplasias” (ProChon Biotech Ltd., priority 2001, dated 2007).

One assay addresses T1, natriuretic peptide receptor on C3H10T1/2 cells (Mus musculus, UniProt Q6VVW5).
T1 construct: endogenous in cells; host or cells: C3H10T1/2 cells
T1 sequence (Q6VVW5 23-1047 limits assumed): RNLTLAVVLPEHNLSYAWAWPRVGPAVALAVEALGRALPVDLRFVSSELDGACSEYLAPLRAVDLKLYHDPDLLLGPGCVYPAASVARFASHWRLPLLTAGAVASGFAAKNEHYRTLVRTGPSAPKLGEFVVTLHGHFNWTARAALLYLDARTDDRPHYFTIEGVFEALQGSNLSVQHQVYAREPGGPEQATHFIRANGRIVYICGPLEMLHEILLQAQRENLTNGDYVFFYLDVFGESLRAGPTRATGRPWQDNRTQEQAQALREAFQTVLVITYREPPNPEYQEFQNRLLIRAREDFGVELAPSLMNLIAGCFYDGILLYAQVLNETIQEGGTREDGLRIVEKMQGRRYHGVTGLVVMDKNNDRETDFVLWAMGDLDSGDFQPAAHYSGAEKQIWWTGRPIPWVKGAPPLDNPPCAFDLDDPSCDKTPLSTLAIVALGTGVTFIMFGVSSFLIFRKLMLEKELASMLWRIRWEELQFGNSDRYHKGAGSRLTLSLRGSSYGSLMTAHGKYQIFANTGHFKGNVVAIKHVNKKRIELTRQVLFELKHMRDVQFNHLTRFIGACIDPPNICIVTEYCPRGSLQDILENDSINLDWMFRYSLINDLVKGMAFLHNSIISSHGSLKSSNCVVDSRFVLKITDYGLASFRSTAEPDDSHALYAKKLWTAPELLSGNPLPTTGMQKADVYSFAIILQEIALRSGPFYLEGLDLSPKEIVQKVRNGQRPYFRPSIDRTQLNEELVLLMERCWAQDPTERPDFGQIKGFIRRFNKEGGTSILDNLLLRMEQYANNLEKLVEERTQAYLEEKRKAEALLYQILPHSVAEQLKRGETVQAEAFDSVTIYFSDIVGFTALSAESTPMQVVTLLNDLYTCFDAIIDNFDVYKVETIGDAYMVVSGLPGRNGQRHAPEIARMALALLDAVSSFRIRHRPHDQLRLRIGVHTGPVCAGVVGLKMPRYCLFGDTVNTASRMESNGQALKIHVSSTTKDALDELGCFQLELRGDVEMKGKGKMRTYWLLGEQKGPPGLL
The assay is described as follows: Biotrak enzyme immunoassay of cGMP elicited on C3H10T1/2 cells.
Conditions: not given
In kind it is cell-based. How it is done: All peptide variants were analyzed for activity using the Biotrak enzyme immunoassay (EIA, Amersham) that measures the amount of secondary messenger, cyclic GMP (cGMP), elicited after activation of the natriuretic peptide receptor by the peptide on C3H10T1/2 cells. Amino acid substitutions are marked in bold and underlined. The assay was performed for CNP and variants at a concentration of 10^−6 M. The values are given as the percent of relative binding compared to CNP, where CNP 1-22 and CNP 5-22 yield 100% binding.
In the case of “C F G L K L D R I G S M S G L G C (CFGLKLDRIGSMSGLGC) [SEQ ID NO:2]”, the “activity in cGMP assay (in words)” value is reported as “active”.

The assay is the same for the next values; noted with them: Table 2; cGMP assay, compared to CNP.
With “C F G L K L D R A G S M S G L G C (CFGLKLDRAGSMSGLGC; peptide variant) [SEQ ID NO:9]”, the “cGMP response as percent of CNP” value came out at 11.5%. Same read-out and setting: to “C H F G L K L D R I G S M A - - C (CHFGLKLDRIGSMAC; peptide variant) [SEQ ID NO:12]” belongs 21.7%. With “C H F G L K L D R I G S - - - - C (CHFGLKLDRIGSC; peptide variant) [SEQ ID NO:20]”, the “cGMP response as percent of CNP” value turned out to be 11.9%. Still for that read-out and setting: to “C F G L K L D R I G S - - - - - C (CFGLKLDRIGSC; peptide variant) [SEQ ID NO:21]” belongs 22.7%; to “C F G L K L D R I G S M S G L G C (CFGLKLDRIGSMSGLGC) [SEQ ID NO:2]”, 127.4%; to “C F G L K L D R I G S M S - - - C (CFGLKLDRIGSMSC; peptide variant) [SEQ ID NO:14]”, 29.9%. Consider “C F G L K L D R I G A M - - - - C (CFGLKLDRIGAMC) [SEQ ID NO:17]”, for which the “cGMP response as percent of CNP” value was 3.4%.

For the sequence “C F G L K L A R I G S M S G L G C (CFGLKLARIGSMSGLGC; peptide variant) [SEQ ID NO:7]”, the “cGMP response as percent of CNP” value was found to be 49.1%. The same measure, in the same setting: to “C F G L K L D A I G S M S G L G C (CFGLKLDAIGSMSGLGC; peptide variant) [SEQ ID NO:8]” belongs 18.4%. For “C H F G L K L D R I - - - - - - C (CHFGLKLDRIC; peptide variant) [SEQ ID NO:23]”, the “cGMP response as percent of CNP” value was determined as 3.8%. Consider “C F G L K L D R I G A Q - - - - C (CFGLKLDRIGAQC; peptide variant) [SEQ ID NO:19]”, for which the “cGMP response as percent of CNP” value is reported as 3.8%.

Turning to “C F G L K L D R I G - - - - - - C (CFGLKLDRIGC; peptide variant) [SEQ ID NO:22]”, the “cGMP response as percent of CNP” value was determined as 4.2%.

Turning to “C F G L K L D R I G S M - - - - C (CFGLKLDRIGSMC; peptide variant) [SEQ ID NO:16]”, the “cGMP response as percent of CNP” value was determined as 17.3%.

The same assay, now with this note: Table 3; cGMP values at 10^-6 M, compared to CNP (CNP 1-22 and CNP 5-22 = 100%).
As for “C F G L K L D R I G S H S G L G C (CFGLKLDRIGSHSGLGC; peptide variant) [SEQ ID NO:66]”, the “cGMP response as percent of CNP” value was determined as 66.222%. In the case of “C A G L K L D R I G S A S G L G C (CAGLKLDRIGSASGLGC; peptide variant) [SEQ ID NO:25]”, the “cGMP response as percent of CNP” value stood at 3.933%.

As to “C F G V K L D R I G S M S G L G C (CFGVKLDRIGSMSGLGC; peptide variant) [SEQ ID NO:42]”, the “cGMP response as percent of CNP” value came out at 64.212%.

In the case of “C F G L K L D R L G S M S G L G C (CFGLKLDRLGSMSGLGC; peptide variant) [SEQ ID NO:51]”, the “cGMP response as percent of CNP” value came out at 14.177%.

On to “C F G L K L D R T G S M S G L G C (CFGLKLDRTGSMSGLGC; peptide variant) [SEQ ID NO:53]”, for which the “cGMP response as percent of CNP” value was −1.945%. “C F G L K L D R I G S M S G G G C (CFGLKLDRIGSMSGGGC; peptide variant) [SEQ ID NO:64]”: the “cGMP response as percent of CNP” value was −10.145%. The same measure, in the same setting: to “C T G L K L D R I G S A S G L G C (CTGLKLDRIGSASGLGC; peptide variant) [SEQ ID NO:71]” belongs −9.108%; to “C F G A K L D R I G S M S G L G C (CFGAKLDRIGSMSGLGC; peptide variant) [SEQ ID NO:40]”, 20.154%; to “C F G L K L D Q I G S M S G L G C (CFGLKLDQIGSMSGLGC; peptide variant) [SEQ ID NO:50]”, 11.953%. Consider “C F G L L L D R I G S M S G L G C (CFGLLLDRIGSMSGLGC; peptide variant) [SEQ ID NO:43]”, for which the “cGMP response as percent of CNP” value is listed as 29.744%. As to “C F G L K L D R I G S M S G L G C (CFGLKLDRIGSMSGLGC) [SEQ ID NO:2]”, the “cGMP response as percent of CNP” value worked out at 100.000%. As for “C F G L K L Q R I G S M S G L G C (CFGLKLQRIGSMSGLGC; peptide variant) [SEQ ID NO:36]”, the “cGMP response as percent of CNP” value is reported as −17.095%. The same measure, in the same setting: to “C F G L K L D R I G S G S G L G C (CFGLKLDRIGSGSGLGC; peptide variant) [SEQ ID NO:69]” belongs 62.117%.

As for “C F G L K L D R I G S S S G L G C (CFGLKLDRIGSSSGLGC; peptide variant) [SEQ ID NO:68]”, the “cGMP response as percent of CNP” value is on record as 62.531%.

Regarding “C F G L K L D R I G G M S G L G C (CFGLKLDRIGGMSGLGC; peptide variant) [SEQ ID NO:55]”, the “cGMP response as percent of CNP” value was 27.811%. Same read-out and setting: to “C F G L K L D R I G S M S A L G C (CFGLKLDRIGSMSALGC; peptide variant) [SEQ ID NO:58]” belongs 53.649%. On to “C F G L K L D R V G S M S G L G C (CFGLKLDRVGSMSGLGC; peptide variant) [SEQ ID NO:52]”, for which the “cGMP response as percent of CNP” value is given as 27.103%. Consider “C F G L K L D R I G S M S G M G C (CFGLKLDRIGSMSGMGC; peptide variant) [SEQ ID NO:62]”, for which the “cGMP response as percent of CNP” value was found to be 51.286%. Same read-out and setting: to “C A G L K L A R I G S A S G L G C (CAGLKLARIGSASGLGC; peptide variant) [SEQ ID NO:27]” belongs −10.355%; to “C A G L K L A R I G S M S G L G C (CAGLKLARIGSMSGLGC; peptide variant) [SEQ ID NO:24]”, −5.848%. For “C F G L K A D R I G S M S G L G C (CFGLKADRIGSMSGLGC; peptide variant) [SEQ ID NO:45]”, the “cGMP response as percent of CNP” value was 11.259%. Still for that read-out and setting: to “C F G L K L D R I G S M S K L G C (CFGLKLDRIGSMSKLGC; peptide variant) [SEQ ID NO:60]” belongs 49.202%; to “C F G L K L D R I G A M S G L G C (CFGLKLDRIGAMSGLGC; peptide variant) [SEQ ID NO:54]”, 54.469%. On the same count and under the same terms, to “C F G L K L I R I G S M S G L G C (CFGLKLIRIGSMSGLGC; peptide variant) [SEQ ID NO:38]” belongs 7.228%. Same read-out and setting: to “C F G L M L D R I G S M S G L G C (CFGLMLDRIGSMSGLGC; peptide variant) [SEQ ID NO:44]” belongs 5.421%. In the case of “C V G L K L D R I G S M S G L G C (CVGLKLDRIGSMSGLGC; peptide variant) [SEQ ID NO:32]”, the “cGMP response as percent of CNP” value was 5.740%. In the case of “C L G L K L D R I G S M S G L G C (CLGLKLDRIGSMSGLGC; peptide variant) [SEQ ID NO:29]”, the “cGMP response as percent of CNP” value turned out to be 6.255%. Still for that read-out and setting: to “C F G L K V D R I G S M S G L G C (CFGLKVDRIGSMSGLGC; peptide variant) [SEQ ID NO:47]” belongs 66.714%; to “C W G L K L D R I G S M S G L G C (CWGLKLDRIGSMSGLGC; peptide variant) [SEQ ID NO:31]”, −10.834%; to “C F G L K L D H I G S M S G L G C (CFGLKLDHIGSMSGLGC; peptide variant) [SEQ ID NO:48]”, 13.482%. As to “C F G L K L D R I G N M S G L G C (CFGLKLDRIGNMSGLGC; peptide variant) [SEQ ID NO:57]”, the “cGMP response as percent of CNP” value turned out to be 27.430%.

Still in this assay, the particulars now being: Table 3; cGMP values at 10^-6 M, compared to CNP (CNP 1-22 and CNP 5-22 = 100%); listed as CNP 5-22.
As for “C F G L K L D R I G S M S G L G C (CFGLKLDRIGSMSGLGC) [SEQ ID NO:2]”, the “cGMP response as percent of CNP” value is on record as 100%.

The same assay, now with this note: listed as SEQ ID NO: 2.
As to “C F G L K L D R I G S M S G L G C (CFGLKLDRIGSMSGLGC) [SEQ ID NO:2]”, the “activity in cGMP assay (in words)” value is on record as “as active as the native CNP1-22”.
